This series deals with MS2 coat protein. Nature of the series: apparent KD of MS2 coat protein; designed switch direction (-1 OFF switch, 1 ON switch): -1; higher = weaker reporter binding. An outline of the steps: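 Three titration conditions were used: no input, 200 uM small-molecule ligand, and an oligonucleotide input. In each, SNAP-549-labelled MS2 coat protein was raised from 0.7 or 1.5 nM, doubling, to 3 µM over designed RNA switches transcribed on Illumina chips by stalled E. coli RNA polymerase. Curve fits of normalised cluster fluorescence gave values whose per-design median over clusters is the apparent KD.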

Where [1] appears, read: input ligand: microRNA oligo, concentration not stated.

With “UGUUGUCGCGUAGGAUAUUGUCAACAGGCAAUAGGAUAUGCGAAAGCAGAAGGAUCGCCAACAGGCGAGAAGGACGGGACAACU [pwkr exNG2 2xF7 2xFMN.5] (Eterna round: R96, puzzle: Exclusion NG 2)”, the “apparent KD of MS2 coat protein” value was determined as 142 nM (input ligand: FMN 200 uM), 913 nM under setting [1] and 1140 nM (input ligand: none).
The matching figures for “UGUUGUUACGCAGGAUAUGAGGAUCACCCAUAGAAGGAUAUCGAAAGAGAAGGUCUGAGGAUUACCCAGAAGGGCGGGUUAACA [pwkr exNG2 2xF5 2xFMN.1] (Eterna round: R96, puzzle: Exclusion NG 2)”: 714 nM, 153 nM and 139 nM.
The matching figures for “UGUUGUUACGCAGGAUAUGAGGAUCACCCAUAUAAGGAUAUCGAAAGAGAAGGUCUGAGGAUUACCCAGAAGGGCGGGUUAACA [pwkr exNG2 2xF5 2xFMN.29] (Eterna round: R96, puzzle: Exclusion NG 2)”: 227 nM, 65.3 nM and 115 nM.
For “UGUUGUUACGCAGGAUAUGCAUGAGGAUCACCCAUGCAACCACAUUUAACAUGAGGAUCACCCAUGUAGAAGGGCGGGUUAACA [pwkr exNG2 2xF5 1xFMN.1] (Eterna round: R96, puzzle: Exclusion NG 2)” the same measures were 77.5 nM, 20.4 nM and 28 nM.
Regarding “UGUUGUUCAGGAUAUGAAGUAUAUUACAUGAGGAUCACCCAUGUAGAUCCUGAAUAUACAUCAGAAGGGAAUAUUU [JR_Ex5_Sub057] (Eterna round: R97, puzzle: Exclusion 5)”, the “apparent KD of MS2 coat protein” value runs as follows: (input ligand: FMN 200 uM) 51 nM; (input ligand: none) 21.1 nM.
Consider “UGUUUAUAUGAAGGAUAUACUUAACAUGAGGAUCACCCAUGUGGUGUUGUGAGUGAGUGAGUUUAGUAGAAGGUCAAUGAUUUU [JMF's solution 75] (Eterna round: R96, puzzle: Exclusion NG 2)”, for which the “apparent KD of MS2 coat protein” value is, setting by setting: (input ligand: FMN 200 uM) 1030 nM; under setting [1], 200 nM; (input ligand: none) 333 nM.
For “UUAAAUCAUGUAGGAUAUGCGUAGCGAAGCUAUGCAGAAGGACAUGAGGAUCACCCAUGUGCUUGCGUCCGCGUACGGAUGCUA [Mat - Exclusion NG 1 - Mod of JL - D66] (Eterna round: R96, puzzle: Exclusion NG 1)”, the “apparent KD of MS2 coat protein” value runs as follows: (input ligand: FMN 200 uM) 202 nM; under setting [1], 107 nM; (input ligand: none) 134 nM.
For “UUAAAUCAUGUAGGAUAUGCGUGGCGAAGCUAUGCAGAAGGACAUGAGGAUCACCCAUGUUCUUCGGUCUGCGUACAGAUCGAA [JL ENG1 1.07] (Eterna round: R96, puzzle: Exclusion NG 1)” the same measures were 316 nM, 20.6 nM and 26.8 nM.
As to “UUAACAUGCUGGUGAUCAUACAUGAGGAUCACCCAUGUAACAAGCUUUUUGUUCGUCUUAUAAUUUAAGAUCACCAG [Stov1/7-B1] (Eterna round: R97, puzzle: Sensor, turn-off variant 1)”, the “apparent KD of MS2 coat protein” value reads like this: (input ligand: FMN 200 uM) 21.6 nM; (input ligand: none) 20.3 nM.
On to “UUAAUGUGAGGAUAUCAGGUGUGCUAGCGUACUGGUACAUCUGAGAAGGCACAUGAGGAUCACCCAUGUUUCUU [JL-ex4-3.23 Brourd mod] (puzzle: Exclusion 4)”, for which, for the setting “Eterna round: R95, input ligand: microRNA oligo, concentration not stated”, the “apparent KD of MS2 coat protein” value came to 26.7 nM.
As for “UUAAUUAAUGUAGGAUAUGCAAGGCGAACCUAAGCAGAAGGACAUGUGGAUCACCCAUGUAAUGCGGUCUGCGUACAGAUCGCU [salish99_ex1_NG1_001] (Eterna round: R96, puzzle: Exclusion NG 1)”, the “apparent KD of MS2 coat protein” value is, setting by setting: (input ligand: FMN 200 uM) 271 nM; under setting [1], 1170 nM; (input ligand: none) 1270 nM.

Source of the values: the supplement of paper PMC9170038.
